Reference: article PMC3740589

Molecular target: Bcl-2 (UniProt P10415)
Experiment: Flag-Beclin1 IP, Bcl-2 immunoblot
Conditions: reference: Flag-Beclin1 wild type; sites T119

binding against the reference: stronger
Substance: Beclin1 (from UniProt Q14457) Flag-Beclin1 T119A
